Results published in patent publication US20230272045A1 (MONASH UNIVERSITY, published 2023).
Where no end group is shown, it is not given here.

Key:
human plasma fibronectin [1] = biological target: T1, human plasma fibronectin (human, UniProt P02751-8 32-2296, limits assumed); test: ELISA; ECM protein coated at 100 nM, BMP-2 0.1 to 100 nM
T1 construct: Coated on ELISA plates at 100 nM; also called Fn
Experimental: (§1) ELISA plates (Greiner bio-one medium binding, Thermo Fisher Scientific) were coated with 100 nM of ECM proteins in […] of PBS for 1 h at 37° C. Then, wells were washed with […] of PBS-T (0.05% Tween-20) and blocked with […] of BSA solution (1% in PBS-T) for 1 h at room temperature. Wells without ECM protein coating, and wells blocked only with the BSA solution were used as controls for non-specific binding. ECM coated wells and control wells were further incubated 1 h at room temperature with solutions of BMP-2 (Peprotech), murine PDGF-BB (Peprotech), IL-1Ra (R&D Systems), or PIGF₁₂₃₋₁₄₁-fused proteins at concentrations ranging from 0 to 100 nM ([…] in PBS-T containing 0.1% BSA prepared in protein-low bind tubes (PROKEEP, Watson bio lab). Then, wells were washed 3 times with […] of PBS-T and incubated for 1 h with […] of biotinylated polyclonal detection antibodies in PBS-T with 0.1% BSA. Detection antibodies used were from BMP-2 DuoSet ELISA (R&D Systems, DY355) for BMP-2, PDGF-BB DuoSet ELISA (R&D Systems, DY8464) for PDGF-BB and IL-1Ra/IL-1F3
(§2) DuoSet ELISA (R&D Systems, DY480) for IL-1Ra. Wells were further washed 3 times with PBS-T and incubated for 20 min with […] of streptavidin-horseradish peroxidase (HRP). After three washes with PBS-T, TMB (ThermoFisher) was added followed by […] of stop solution (0.16M sulfuric acid). Concentrations of detection antibodies and streptavidin-HRP were used according to the manufacturer's instructions. To calculate the dissociation constants (KD) specific-binding values were fitted with a one site specific binding model using A450 nm=Bmax*[growth factors or IL-1Ra variants]/(KD+[growth factors or IL-1Ra variants]).

human vitronectin [2] = biological target: T2, human vitronectin (human, UniProt P04004 20-478); test: as above
T2 construct: Coated on ELISA plates at 100 nM; also called Vn
T2 sequence (P04004 20-478 limits assumed): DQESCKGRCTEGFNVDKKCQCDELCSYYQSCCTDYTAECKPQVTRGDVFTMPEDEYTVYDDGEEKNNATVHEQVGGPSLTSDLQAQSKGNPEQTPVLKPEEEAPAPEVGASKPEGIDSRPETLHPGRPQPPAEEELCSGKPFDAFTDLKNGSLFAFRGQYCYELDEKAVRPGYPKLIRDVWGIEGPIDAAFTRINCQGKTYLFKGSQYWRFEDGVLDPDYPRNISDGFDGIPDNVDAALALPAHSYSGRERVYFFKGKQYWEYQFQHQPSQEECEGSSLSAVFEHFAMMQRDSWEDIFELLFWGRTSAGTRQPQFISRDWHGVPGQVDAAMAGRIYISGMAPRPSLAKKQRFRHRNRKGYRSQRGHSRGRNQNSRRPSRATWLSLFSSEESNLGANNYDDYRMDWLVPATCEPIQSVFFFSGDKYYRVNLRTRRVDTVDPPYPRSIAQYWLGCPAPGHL
Experimental: as §1, §2

human fibrinogen [3] = biological target: T3, human fibrinogen (human, UniProt P02671 20-644; P02675 31-491; P02679 27-437, limits assumed); test: as above
T3 construct: Coated on ELISA plates at 100 nM; also called Fg
T3 sequence (looked up) 1: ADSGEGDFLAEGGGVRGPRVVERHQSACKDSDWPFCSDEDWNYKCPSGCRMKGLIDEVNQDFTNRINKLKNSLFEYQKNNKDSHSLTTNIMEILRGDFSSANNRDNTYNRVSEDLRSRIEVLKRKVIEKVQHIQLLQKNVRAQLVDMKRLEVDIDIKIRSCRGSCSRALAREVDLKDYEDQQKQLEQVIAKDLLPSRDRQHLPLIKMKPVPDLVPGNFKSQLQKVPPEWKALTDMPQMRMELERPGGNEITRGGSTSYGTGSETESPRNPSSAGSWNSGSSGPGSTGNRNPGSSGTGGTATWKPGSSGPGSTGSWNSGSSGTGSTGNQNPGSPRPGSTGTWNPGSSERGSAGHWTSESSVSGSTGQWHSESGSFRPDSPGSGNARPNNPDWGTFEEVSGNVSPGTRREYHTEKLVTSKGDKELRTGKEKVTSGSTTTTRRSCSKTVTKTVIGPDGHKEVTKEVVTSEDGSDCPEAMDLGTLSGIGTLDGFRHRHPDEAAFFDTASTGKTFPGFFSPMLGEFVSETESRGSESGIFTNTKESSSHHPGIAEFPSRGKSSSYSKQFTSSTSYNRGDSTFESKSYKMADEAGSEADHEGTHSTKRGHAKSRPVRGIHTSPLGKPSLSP
T3 sequence (looked up) 2: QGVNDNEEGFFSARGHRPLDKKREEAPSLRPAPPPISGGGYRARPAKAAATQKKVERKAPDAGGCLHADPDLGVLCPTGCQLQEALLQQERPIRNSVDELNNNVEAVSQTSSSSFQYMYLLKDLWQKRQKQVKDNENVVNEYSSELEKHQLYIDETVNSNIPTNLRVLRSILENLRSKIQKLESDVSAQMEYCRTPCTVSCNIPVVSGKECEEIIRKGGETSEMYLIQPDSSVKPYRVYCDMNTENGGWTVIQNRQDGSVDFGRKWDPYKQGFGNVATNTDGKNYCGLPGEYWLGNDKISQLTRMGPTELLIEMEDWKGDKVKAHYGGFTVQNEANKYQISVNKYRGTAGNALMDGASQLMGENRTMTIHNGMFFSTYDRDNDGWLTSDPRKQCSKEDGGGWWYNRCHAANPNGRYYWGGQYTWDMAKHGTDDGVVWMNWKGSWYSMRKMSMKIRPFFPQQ
T3 sequence (looked up) 3: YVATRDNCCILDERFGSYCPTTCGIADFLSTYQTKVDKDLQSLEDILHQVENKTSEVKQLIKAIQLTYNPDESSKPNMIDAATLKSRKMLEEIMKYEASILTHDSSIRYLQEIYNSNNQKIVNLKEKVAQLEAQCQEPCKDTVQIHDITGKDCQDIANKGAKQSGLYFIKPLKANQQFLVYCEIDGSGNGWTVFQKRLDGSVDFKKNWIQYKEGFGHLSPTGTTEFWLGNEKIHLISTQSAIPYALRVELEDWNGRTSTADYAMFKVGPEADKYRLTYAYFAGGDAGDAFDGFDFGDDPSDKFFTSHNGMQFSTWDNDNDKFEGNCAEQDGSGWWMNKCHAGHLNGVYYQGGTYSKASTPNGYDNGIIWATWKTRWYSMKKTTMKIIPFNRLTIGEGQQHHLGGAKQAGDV
Experimental: as §1, §2

human plasma fibronectin [4] = biological target: T1, human plasma fibronectin; test: ELISA; GST-fused fragment at 100 nM on coated ECM protein, anti-GST detection
Experimental: (§3) ELISA plates (96-Well Medium Binding, Greiner bio-one) were coated with solutions of 100 nM of human plasma fibronectin (Sigma), human vitronectin (Peprotech), human tenascin C (R&D Systems), or human fibrinogen (Enzyme Research Laboratories) in PBS for 1 h at 37° C. Wells were washed with washing buffer (PBS-T, PBS with 0.05% Tween-20) and blocked with 1% BSA in PBS-T for 1 h at room temperature. Then, wells were incubated with 100 nM of GST-fused PIGF fragments (in PBS-T with 0.1% BSA) for 1 h at room temperature. GST (100 nM) was used as negative control. Wells were washed 3 times with washing buffer and incubated with 0.1 μg/ml of HRP-conjugated antibody against GST (GE Healthcare, RPN1236V) in PBS-T with 0.1% BSA for 45 min at room temperature. Wells were washed 3 times with PBS-T and detection was done with tetramethylbenzidine substrate and measurement of the absorbance at 450 nm.

human vitronectin [5] = biological target: T2, human vitronectin; test: as above
Experimental: as §3

human fibrinogen [6] = biological target: T3, human fibrinogen; test: as above
Experimental: as §3

Measured: binding result

T1 sequence (P02751 other isoform, or with tags, fused parts or gaps limits assumed): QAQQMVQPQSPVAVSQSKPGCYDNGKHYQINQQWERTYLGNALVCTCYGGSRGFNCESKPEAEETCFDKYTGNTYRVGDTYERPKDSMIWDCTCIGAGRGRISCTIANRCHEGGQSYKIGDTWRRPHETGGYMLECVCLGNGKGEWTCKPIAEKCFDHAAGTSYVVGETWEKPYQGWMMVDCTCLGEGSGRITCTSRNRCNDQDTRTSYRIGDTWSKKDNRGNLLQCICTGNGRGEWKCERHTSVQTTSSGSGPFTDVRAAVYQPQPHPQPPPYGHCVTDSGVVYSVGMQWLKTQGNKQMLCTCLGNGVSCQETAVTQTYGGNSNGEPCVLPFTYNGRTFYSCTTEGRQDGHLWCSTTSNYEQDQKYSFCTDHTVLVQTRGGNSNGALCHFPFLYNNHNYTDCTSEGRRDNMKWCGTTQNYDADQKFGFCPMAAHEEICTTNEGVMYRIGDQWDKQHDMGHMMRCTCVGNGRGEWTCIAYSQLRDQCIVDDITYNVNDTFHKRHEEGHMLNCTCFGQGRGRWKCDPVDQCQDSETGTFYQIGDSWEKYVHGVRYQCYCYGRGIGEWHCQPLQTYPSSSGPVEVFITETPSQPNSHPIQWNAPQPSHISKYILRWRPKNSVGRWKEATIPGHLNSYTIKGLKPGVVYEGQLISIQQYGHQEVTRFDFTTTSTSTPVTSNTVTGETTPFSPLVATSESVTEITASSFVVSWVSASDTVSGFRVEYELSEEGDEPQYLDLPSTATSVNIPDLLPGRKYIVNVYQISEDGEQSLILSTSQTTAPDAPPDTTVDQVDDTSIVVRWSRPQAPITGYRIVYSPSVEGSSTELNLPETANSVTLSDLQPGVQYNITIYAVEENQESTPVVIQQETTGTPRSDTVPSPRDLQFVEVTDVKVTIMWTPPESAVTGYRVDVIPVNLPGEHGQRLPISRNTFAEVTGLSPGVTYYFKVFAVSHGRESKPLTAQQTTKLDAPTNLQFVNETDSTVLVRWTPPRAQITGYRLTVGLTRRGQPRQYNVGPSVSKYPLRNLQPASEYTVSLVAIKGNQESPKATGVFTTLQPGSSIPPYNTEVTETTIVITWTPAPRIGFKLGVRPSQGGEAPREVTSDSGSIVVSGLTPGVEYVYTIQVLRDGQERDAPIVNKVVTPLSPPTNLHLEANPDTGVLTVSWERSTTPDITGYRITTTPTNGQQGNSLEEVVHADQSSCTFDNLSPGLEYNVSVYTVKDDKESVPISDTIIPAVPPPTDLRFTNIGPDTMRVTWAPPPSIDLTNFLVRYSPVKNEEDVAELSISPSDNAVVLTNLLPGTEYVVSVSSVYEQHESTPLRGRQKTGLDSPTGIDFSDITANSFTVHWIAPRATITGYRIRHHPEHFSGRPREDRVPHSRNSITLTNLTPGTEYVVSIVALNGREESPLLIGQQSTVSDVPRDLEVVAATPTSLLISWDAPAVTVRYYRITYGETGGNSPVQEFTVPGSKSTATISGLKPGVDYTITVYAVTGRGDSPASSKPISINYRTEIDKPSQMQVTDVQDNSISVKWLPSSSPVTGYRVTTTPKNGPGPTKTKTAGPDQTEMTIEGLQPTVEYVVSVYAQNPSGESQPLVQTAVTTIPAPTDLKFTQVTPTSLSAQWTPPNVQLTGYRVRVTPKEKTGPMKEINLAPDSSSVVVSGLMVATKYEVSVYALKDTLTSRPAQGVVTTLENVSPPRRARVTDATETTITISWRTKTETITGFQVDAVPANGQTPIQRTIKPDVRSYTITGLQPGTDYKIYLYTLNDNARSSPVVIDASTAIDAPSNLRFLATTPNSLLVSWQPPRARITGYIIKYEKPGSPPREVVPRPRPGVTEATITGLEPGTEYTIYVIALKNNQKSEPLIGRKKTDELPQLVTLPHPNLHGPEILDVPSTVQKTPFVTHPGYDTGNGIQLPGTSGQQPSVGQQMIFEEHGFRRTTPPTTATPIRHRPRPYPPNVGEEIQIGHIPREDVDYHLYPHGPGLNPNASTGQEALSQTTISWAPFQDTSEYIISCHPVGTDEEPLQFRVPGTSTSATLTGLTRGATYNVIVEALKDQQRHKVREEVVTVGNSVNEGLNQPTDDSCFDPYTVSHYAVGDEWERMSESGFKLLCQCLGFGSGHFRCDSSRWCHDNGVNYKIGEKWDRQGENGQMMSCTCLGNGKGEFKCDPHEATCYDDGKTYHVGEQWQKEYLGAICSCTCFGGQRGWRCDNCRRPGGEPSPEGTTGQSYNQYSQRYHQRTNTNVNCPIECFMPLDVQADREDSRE

B1: BMP-2 (bone morphogenetic protein-2, Peprotech) (ligand, murine, UniProt P21274 281-394, looked up)
chain: QAKHKQRKRLKSSCKRHPLYVDFSDVGWNDWIVAPPGYHAFYCHGECPFPLADHLNSTNHAIVQTLVNSVNSKIPKACCVPTELSAISMLYLDENEKVVLKNYQDMVVEGCGCR
notes: also called wild-type BMP-2
binds: human plasma fibronectin [1] | human vitronectin [2] | human fibrinogen [3]

B2: GST-fused PIGF123-141 fragment (peptide)
chain: RRRPKGRGKRRREKQRPTD-6xHis
modifications: not fully specified (N-terminus); also: fused to GST (vector linker letters not given here)
notes: Expressed in E. coli BL21 (DE3), purified on GSTrap and then HisTrap, and used at 100 nM in the ELISA; not shown: glutathione S-transferase (GST) encoded by the expression vector pGEX6P-1; histidine tag (6xHis) added at the C-terminus of the fragment
binds: human plasma fibronectin [4] | human vitronectin [5] | human fibrinogen [6]
